First the molecules themselves.
T1: Transmembrane activator and calcium modulator and cyclophilin ligand (CAML) interactor (TACI), on cells (human, UniProt O14836 1-293)
T1 construct: whole, on cells; also called TNFRSF13B; SupT1 TACI cells
T1 sequence (looked up): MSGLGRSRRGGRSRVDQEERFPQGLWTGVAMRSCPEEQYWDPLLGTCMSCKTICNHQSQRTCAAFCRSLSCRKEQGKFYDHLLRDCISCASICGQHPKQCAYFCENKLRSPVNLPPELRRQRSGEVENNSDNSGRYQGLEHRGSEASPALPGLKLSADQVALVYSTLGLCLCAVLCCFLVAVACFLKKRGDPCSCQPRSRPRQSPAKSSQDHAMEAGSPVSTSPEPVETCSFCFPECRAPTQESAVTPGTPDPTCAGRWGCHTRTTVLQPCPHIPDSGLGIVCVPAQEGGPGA

T2: Transmembrane activator and calcium modulator and cyclophilin ligand (CAML) interactor (TACI), on cells (human, UniProt O14836 1-293)
T2 chain: T1 sequence (looked up)

B1: 2G2 anti-TACI monoclonal antibody (mouse hybridoma) (antibody, V domains shown)
VH: QVTLKESGPGMLQPSQTLSLTCSFSGFSLSTFGMGVGWIRQPSGKGLEWLAHIWWDDAQYSNPALRSRLTISKDTSKNQVFLKIANVDTADTATYYCSRIHSYYSYDEGFAYWGQGTLVTVSS
VL: DIVMTQSQKFMSTTVGDRVSITCKASQNVGTAVAWYQQKPGQSPKLLIYSASNRYTGVPDRFTGSGSGTDFTLTISNMQSEDLADYFCQQYSSYRTFGGGTKLEIKR
notes: Tested as hybridoma supernatant from BalBC mice
B2: 1G6 anti-TACI monoclonal antibody (mouse hybridoma) (antibody, V domains shown)
VH: QVQLKQSGPGLVAPSQSLSITCTVSGFSLTSYGVDWVRQSPGKGLEWLGIIWGGGRTNYNSAFKSRLSISKDNSKSQVFLKMNSLQTDDTAMYYCASGDRAADYWGQGTSVTVSS
VL: DIVMTQSQKFMSTTVGDRVTITCKASQNVGTAVAWYQQKPGQSPKLLIYSASNRYTGVPVRFTGSGSGTDFTLTINNMQSEDLADYFCQQYSSYPLTFGAGTKLELK
notes: as for B1
B3: 4B11 anti-TACI monoclonal antibody (mouse hybridoma) (antibody, V domains shown)
VH: EVQLQQSVAELVRPGASVKLSCTASGFNIKNTYIHWVKQRPEQGLEWIGKIDPANGNSEYAPKFQGKATITADTSSNTAYLQLSSLTSEDTTIYYCTSGYGAYWGQGTTLTVSS
VL: DIVLSQSPSSLAVSIGEKVTLSCKSSQSLLYSSNQKNYLAWFQQKPGQSLKLLIYWASTREFGVPDRFTGSGSGTDFTLTISSVKTEDLAVYYCQQYYTWTFGGGTKLEIK
notes: as for B1
B4: 2H6 anti-TACI monoclonal antibody (mouse hybridoma) (antibody, V domains shown)
VH: EVQLQQSGPELVKPGASVRMSCKASGYTFTNYVMHWVKQKPGQGLEWIGYINPSNDDTKYTEKFKGKATLTSDKSSSTAYMELSSLTSEDSAVYYCARGTHGDYYALDYWGQGTSVTVSS
VL: DIVLTQSPASLAVSLGQSVTISCRASESVEYYGTSLMQWYQQKPGQAPKLLIYGASNVESGVPARFSGSGSGTDFSLNIHPVEEDDIAMYFCQQSRKVPWTFGGGTKLEI

We go through four molecules from patent publication US20190352409A1 (AUTOLUS, published 2019).

In one assay the target is T1, Transmembrane activator and calcium …. The assay can be described thus: flow cytometry on TACI positive SupT1 cells (FIG. 6b). An excerpt: b) Confirmatory analysis of TACI binding by flow cytometry. Hybridoma lines were screened on TACI positive and BCMA positive SupT1 cells. The four hybridomas with the highest reactivity to SupT1 TACI cells were chosen for subcloning and characterisation
Five mice with TACI positive sera were selected for a final immunization boost before the spleens were harvested for B cell isolation and hybridoma production. Hybridoma fusions of 10×96-well plates with lymphocytes from the selected mice were performed. Hybridoma supernatants were screened for reactive anti-TACI antibodies by ELISA screening against recombinant human TACI purified protein (Peprotech, 310-17), representative data is shown in FIG. 6a. ELISA positive hybridoma supernatants were tested by flow cytometry, on SupT1 cells engineered to overexpress TACI. As a control BCMA expressing SupT1 cells were used, FIG. 6b. Candidate hybridomas were expanded.
With B1, the binding result is recorded as “binds”.

For B2, the binding result is reported as “binds”.

Take B3: the binding result is given as “binds”.

For the next assay, the target named is T2, Transmembrane activator and calcium …. Kind of assay: Biacore SPR.
One may read the Kd as the free concentration of one partner at which half of the binding sites on the other are occupied at equilibrium, for simple one-to-one binding. B4: the Kd is 0.051 nM.

For B1, the dissociation constant (Kd) was found to be 0.924 nM.

For the molecule B2, the Kd amounted to 0.21 nM.

With B3, the dissociation constant (Kd) worked out at 0.379 nM.
